Data: PMC8698692, “Generation of a Novel High-Affinity Antibody Binding to PCSK9 Catalytic Domain with Slow Dissociation Rate by CDR-Grafting, Alanine Scanning and Saturated Site-Directed Mutagenesis for Favorably Treating Hypercholesterolemia” (Biomedicines, 2021)
Numbering of substitutions follows the chain as printed.

B1: h5E12scFv, humanized 5E12 scFv by CDR grafting without back mutation (scFv, V domains shown)
VH: QVQLVQSGAEVKKPGASVKVSCKASGYTFTSYWMHWVRQAPGQGLEWMGEINPSNGRTDHSEKFKNRVTMTRDTSTSTVYMELSSLRSEDTAVYYCARFHYDYDYFDYWGQGTLVTVSS
VL: DIVMTQSPSSLSASVGDRVTITCKASRNVGNSVGWYQQKPGKAPKLLIYSASYRYSGVPSRFSGSGSGTDFTLTISSLQPEDFATYYCQQYNRYPLTFGQGTKVEIK
notes: VH of h5E12scFv: CDRs of m5E12 grafted onto the human heavy chain GenBank AMK70123.1; (Gly4Ser)3 linker; the format VH-(Gly4Ser)3-VL is told for m5E12scFv, of which this is the humanized form; VL of h5E12scFv: CDRs of m5E12 grafted onto the human light chain GenBank APZ85158.1; Cloned in pET-27b with the pelB signal peptide; isolated from the periplasm; source: E. coli BL21 (DE3), periplasm, …
B2: m5E12scFv, murine 5E12 single-chain variable fragment (scFv, V domains shown)
VH: EVQLEQSGAELVKPGASVKLSCKASGYTFTSYWMHWVKQRPGQGLEWIGEINPSNGRTDHSEKFKNKATLTVDKSSTTAYLQLSSLTSEDSSVYYCARFHYDYDYFDYWGQGTTLTVSS
VL: DIVITQSTKFMSTSVGDRVSVTCKASRNVGNSVGWYQQKPGQSPKILIYSASYRYSGVHDRFTGSGSGTDFTLTISNVQSEDLAEYFCQQYNRYPLTFGEGTKLELK
notes: VH of m5E12; (Gly4Ser)3 linker between VH and VL; VL of m5E12; Cloned in pET-27b with the pelB signal peptide; isolated from the periplasm; also called murine 5E12 scFv; source: E. coli BL21 (DE3), periplasm, purified (Ni-NTA, Superdex 75 SEC)
B3: h5E12scFv-bm, humanized 5E12 scFv by CDR grafting with back mutation (scFv, V domains shown)
VH: B1 VH with Q1E, R38K, M48I, R67K, V68A, R72V, V79A, M81L, A92S
VL: B1 VL with M4I, P8T, L46I, P59H, T85E, Y87F, Q100E
notes: (Gly4Ser)3 linker; the format VH-(Gly4Ser)3-VL is told for m5E12scFv, of which this is a humanized form; Cloned in pET-27b with the pelB signal peptide; isolated from the periplasm; source: E. coli BL21 (DE3), periplasm, purified (Ni-NTA, Superdex 75 SEC)
B4: m5E12, murine monoclonal antibody against hPCSK9 (IgG1, kappa) (antibody, V domains shown)
VH: B2 VH
VL: B2 VL
notes: VH of m5E12; mouse IgG1 heavy-chain constant region (isotype found with a kit; BALB/c mice); VL of m5E12; mouse kappa light-chain constant region (isotype found with a kit); Mouse IgG1 kappa; also called mAb 5E12; source: hybridoma 5E12 supernatant (screening ELISA); mouse ascites, purified (protein A)

What was measured:
[1] = target: T1, human proprotein convertase subtilisin/kexin type 9 (hPCSK9), recombinant (Homo sapiens, UniProt Q8NBP7, biotinylated with a biotinylation kit for the BLI assay only (sites not given)); experiment: BLI; ForteBio Octet QKe; biotinylated hPCSK9 (50 μg/mL) immobilised on streptavidin biosensors; 2-fold dilutions of antibody (scFvs 6000-93.75 nM, mAbs 800-12.5 nM), association 300 s or longer, dissociation 600 s in SD buffer (PBS, 0.02% Tween 20, 0.1% BSA, pH 7.4); global fit; settings: both partners purified
T1 construct: signal peptide in the construct; source: CHO-3E7, transiently transfected (pTT5-hPCSK9), supernatant purified (Ni-IMAC, Superdex 200 SEC)

[2] = target: T1, human proprotein convertase …; experiment: ELISA; non-competitive ELISA; hPCSK9 coated at 1 μg/mL and 2 μg/mL; purified m5E12 at 10^-1 to 10^5 ng/mL; HRP goat anti-mouse IgG; Kaff = (n − 1)/2(n[Ab']t − [Ab]t); settings: both partners purified

T1 sequence (Q8NBP7 31-692): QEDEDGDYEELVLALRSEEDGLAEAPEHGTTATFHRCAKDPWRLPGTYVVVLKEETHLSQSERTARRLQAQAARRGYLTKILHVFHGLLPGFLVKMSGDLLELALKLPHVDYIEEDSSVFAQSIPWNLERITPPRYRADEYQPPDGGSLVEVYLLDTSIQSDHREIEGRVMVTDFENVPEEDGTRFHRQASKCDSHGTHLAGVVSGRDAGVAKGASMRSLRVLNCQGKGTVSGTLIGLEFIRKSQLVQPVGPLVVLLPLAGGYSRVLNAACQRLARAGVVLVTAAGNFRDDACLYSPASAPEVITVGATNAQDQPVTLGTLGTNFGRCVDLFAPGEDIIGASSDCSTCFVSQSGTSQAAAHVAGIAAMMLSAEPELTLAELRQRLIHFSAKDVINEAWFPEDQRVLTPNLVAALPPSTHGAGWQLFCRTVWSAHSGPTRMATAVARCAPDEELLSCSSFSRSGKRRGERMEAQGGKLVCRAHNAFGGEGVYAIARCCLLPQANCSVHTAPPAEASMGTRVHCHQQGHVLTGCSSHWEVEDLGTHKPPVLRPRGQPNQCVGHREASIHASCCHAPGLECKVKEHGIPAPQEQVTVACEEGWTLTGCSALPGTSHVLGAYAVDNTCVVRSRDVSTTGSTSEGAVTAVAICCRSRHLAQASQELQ

Binder	Kd [1]	koff [1]	Ka [2]
B1	171 nM	0.00108 s⁻¹	–
B2	–	0.00744 s⁻¹	–
B3	–	0.01 s⁻¹	–
B4	–	–	1.04e+09 M⁻¹
